The values that follow come from PMC3572731 (Journal of molecular biology, 2012).

The series “crystal structure” deals with the molecule itself. As to the kind of experiment: crystal structure.
The series “SEC” deals with the molecule itself. As to the kind of experiment: SEC.

B1: Sf6 terminase small subunit gp1 R48A mutant (natural protein)
chain: MATEPKAGRPSDYMPEVADDICSLLSSGESLLKVCKRPGMPDKSTVFAWLAKHEDFRDKYAKATEARADSIFEEIFEIADNAIPDAAEVAKARLRVDTRKWALARMNPRKYGDKVTNELVGKDGGAIQIETSPMSTLFGK
Consider B1, for which the binding result in the series “crystal structure” was “binds”.

B2: Sf6 terminase small subunit gp1 K59E mutant (natural protein)
chain: MATEPKAGRPSDYMPEVADDICSLLSSGESLLKVCKRPGMPDKSTVFRWLAKHEDFRDEYAKATEARADSIFEEIFEIADNAIPDAAEVAKARLRVDTRKWALARMNPRKYGDKVTNELVGKDGGAIQIETSPMSTLFGK
For B2, the binding result in the series “crystal structure” is “binds”.

B3: Sf6 terminase small subunit gp1 D19R mutant (natural protein, Shigella phage Sf6, UniProt Q716H4 1-140, looked up)
chain: MATEPKAGRPSDYMPEVARDICSLLSSGESLLKVCKRPGMPDKSTVFRWLAKHEDFRDKYAKATEARADSIFEEIFEIADNAIPDAAEVAKARLRVDTRKWALARMNPRKYGDKVTNELVGKDGGAIQIETSPMSTLFGK
As for B3, the binding result in “crystal structure” is given as “binds”.

B4: Sf6 terminase small subunit gp1 E73A mutant (natural protein, Shigella phage Sf6)
chain: MATEPKAGRPSDYMPEVADDICSLLSSGESLLKVCKRPGMPDKSTVFRWLAKHEDFRDKYAKATEARADSIFAEIFEIADNAIPDAAEVAKARLRVDTRKWALARMNPRKYGDKVTNELVGKDGGAIQIETSPMSTLFGK
Turning to B4, in “SEC”, the “stoichiometry N” value was 8.
